System: GST-MT1-MMP cytoplasmic tail fusion protein

Substance: recombinant Src kinase
- tyrosine phosphorylation of GST-MT in an in vitro phosphorylation assay (western blot): Src-mediated tyrosine phosphorylation of GST-MT
